Laboratory results from article doi:10.1101/2024.02.18.580885 (bioRxiv, 2024).

Biological target: the molecule itself
Assay: dynamic light scattering

B1: TFIP11 N-TER (N-terminal region of Tuftelin Interacting Protein 11) (domain or fragment, human, UniProt Q9UBB9 1-350, looked up)
chain: MSLSHLYRDGEGRIDDDDDERENFEITDWDLQNEFNPNRQRHWQTKEEATYGVWAERDSDDERPSFGGKRARDYSAPVNFISAGLKKGAAEEAELEDSDDEEKPVKQDDFPKDFGPRKLKTGGNFKPSQKGFAGGTKSFMDFGSWERHTKGIGQKLLQKMGYVPGRGLGKNAQGIINPIEAKQRKGKGAVGAYGSERTTQSMQDFPVVDSEEEAEEEFQKELSQWRKDPSGSKKKPKYSYKTVEELKAKGRISKKLTAPQKELSQVKVIDMTGREQKVYYSYSQISHKHNVPDDGLPLQSQQLPQSGKEAKAPGFALPELEHNLQLLIDLTEQEIIQNDRQLQYERDMVV
binding result: binds
